# B1: TPR t1 (parent)
# chain: GACCAAUCUGCCCUCAGAGCUCGAGAACAUCUUCGGAUGCAGAGGAGGCAGGCUUCGGUGGCGCGAUAGCGCCAACGUCCUCAACCUCCAAUGCAUCCCACCACAUGAUGAUGCCUGAAGAGCCUUGGUUUUUUG
# Variants of: B1
# Assay: polymerase ribozyme fitness, log enrichment relative to wild type (log ratio); higher = more active; in vitro selection for triplet polymerase activity
# Procedure, shortened: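 PCR was used to build mutant libraries for each subunit of a heterodimeric triplet polymerase ribozyme, which were then transcribed. A single in vitro selection round, in triplicate, used a frozen incubation at −7 °C and recovered extended constructs by gel excision, streptavidin beads and RT-PCR. Fitness is the logarithm of genotype enrichment relative to wild-type enrichment, averaged over replicates with inverse-variance weights. The logarithm is base 2, and after Illumina sequencing only genotypes with ≥10 input reads and ≥1 read per output were kept.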
row,Variant,polymerase ribozyme fitness (log ratio)
1,C64U C72U U106G G127C,-2.97
2,G61U A84U,-0.0265
3,G63A U126G,-2.3
4,C62A C94U,-1.76
5,G61U G77C A119U,-1.73
6,C62U U87C,-0.408
7,G63C C94A,-1.52
8,G63C A90C,-2.06
9,G63C A90U,-2.23
10,C62G C82U G117C,-5.97
11,C64U C76A G120U,-5.9
12,G61U C99A,-5.7
13,G61U C98A C99A,-5.19
14,G63A C72G,-3.11
15,C64U A74C,-0.717
16,C62U G110U,-1.14
17,G61U G93U U130A,-1.63
18,C62A C82U A121U U125A,1.19
19,C64U C94A,-0.615
20,G63U C94G,-1.4
21,G63U U78G,-3.12

row,Variant,polymerase ribozyme fitness (log ratio)
1,G63C U116A C123U,-1.91
2,C62G C124A,-0.74
3,C62G C124U,0.784
4,G63A U106G,-2.57
5,G63A U106A,-1.29
6,G61C C104U G110A,-2.86
7,C64U C70G C79U A111U U112A C124A,-5.81
8,G63A U131G,-1.53
9,C62U A95U C114U,-3.03
10,C62U C73U C79U C80U U112A,-3.4
11,C62G U106C,-2.05
12,G61U G117A,-0.499
13,C64G C98U,-6.14
14,G63U C124U,0.0528
15,C62A C99U,-3.69
16,G63A C70G C73A,-5.82
17,G61C C79U C101G,-1.64
18,G63A G71A,-2.59
19,G63A G93A G120U,-1.07
20,C64A U87A,-6.3
21,G63C G117C C123G,-2.31

row,Variant,polymerase ribozyme fitness (log ratio)
1,G61U G107A,-5.22
2,G61U G135A,-0.268
3,C62A A95U A121C,-0.641
4,C62U C64U,-0.305
5,G63U U87A G122U,-1.97
6,G61U A83C,-0.327
7,C62G G93C,-3.7
8,C62A C85G,-2.62
9,G63A U78C G113A,-1.96
10,G61U U81G U129A,-4.47
11,C62U G135U,-0.561
12,G61U C94U,0.338
13,G61C C124G,-0.476
14,G63A G93U C98U A121G,-0.418
15,C64G U112A,-4.73
16,C62U C86A,-0.731
17,C62U C86U,-0.567
18,G63C U92A,-4.04
19,G63U G120A,-0.542
20,G61C C97U,-2.51
21,C62G U78C,-1.87

row,Variant,polymerase ribozyme fitness (log ratio)
1,G61U C115G G117A G122U U126C,-4.57
2,C62A C72U G93C,-1.64
3,G61C C123G,0.189
4,C62U C114U,-1.82
5,C62U C114G,-3.11
6,G61U A103C,-5.47
7,G61C C89A U132C,-3.89
8,C62G G120U,-1.64
9,G61U G113C U130G G135U,-3.21
10,C62U C124U,0.977
11,G63A G107A,-6.55
12,G63A U126G U130G,-4.43
13,G63A G122A,-1.62
14,G63C U92A U132A,-3.33
15,G63A G69U C79U,-0.72
16,C62G A119U G128C,-4.08
17,G61U C97A,-3.26
18,C64U A66U C124A,1.13
19,G61U C86A A119C G120A,-2.79
20,G63A U87G A111C,-1.52

# Source: the RNAGym collection of RNA variant scans (doi:10.1073/pnas.2313332121)
